{
  "source": "paper PMC4156298",
  "about": "“Characterization of the PH1704 Protease from Pyrococcus horikoshii OT3 and the Critical Functions of Tyr120” (PLoS ONE, 2014)",
  "key": {"[1]": {"substrate": "Cc1cc(=O)oc2cc(NC(=O)[C@@H](N)CCCNC(=N)N)ccc12", "experiment": "fluorescence of released amc, Hill equation fit", "assay_type": "biochemical, Pyrococcus horikoshii", "details": "50 mM sodium phosphate pH 7.5, 358 K, 60 min, aminopeptidase, 85.0 °C", "excerpt": "fluorescence of released amc, Hill equation fit on PH1704 protease"}, "[2]": {"molecular_target": "the molecule itself", "experiment": "native gel or EMSA; non-denaturing PAGE (10% resolving gel, 5% stacking gel), Coomassie stain and anti-His western blot; size read against a high molecular weight protein marker"}},
  "data": [
    {"protein": "recombinant PH1704 protease from Pyrococcus horikoshii OT3 (enzyme, UniProt O59413 1-166, looked up, PH1704 protease, Pyrococcus horikoshii OT3, gene amplified from genomic DNA with primers at the start and at the stop codon, cloned NdeI/BamHI into pET-15b; The tag is known from detection with an anti-His tag antibody; also called WT; source: E. coli BL21 (DE3), purified (heat incubation at 80°C, Sephacryl S-200); copies: 12) MKVLFLTANEFEDVELIYPYHRLKEEGHEVYIASFERGTITGKHGYSVKVDLTFDKVNPEEFDALVLPGGRAPERVRLNEKAVSIARKMFSEGKPVASICHGPQILISAGVLRGRKGTSYPGIKDDMINAGVEWVDAEVVVDGNWVSSRVPADLYAWMREFVKLLK", "values": [
      {"measurement": "Km", "setting": "[1]", "value": "12 ± 0.65", "unit": "µM"},
      {"measurement": "kcat", "setting": "[1]", "value": "0.0108 ± 0.000833", "unit": "s⁻¹"},
      {"measurement": "kcat/Km", "setting": "[1]", "value": "867 ± 133", "unit": "M⁻¹ s⁻¹"},
      {"measurement": "stoichiometry N", "setting": "[2]", "value": 12}
    ]},
    {"protein": "PH1704 protease (Pyrococcus horikoshii OT3; Y120S) (protein, full-length gene in pET-15b (NdeI/BamHI), His-tag (detected by anti-His western blot), E. coli BL21(DE3); heat step and Sephacryl S-200) MKVLFLTANEFEDVELIYPYHRLKEEGHEVYIASFERGTITGKHGYSVKVDLTFDKVNPEEFDALVLPGGRAPERVRLNEKAVSIARKMFSEGKPVASICHGPQILISAGVLRGRKGTSSPGIKDDMINAGVEWVDAEVVVDGNWVSSRVPADLYAWMREFVKLLK", "values": [
      {"measurement": "Km", "setting": "[1]", "value": "9.0 ± 0.43", "unit": "µM"},
      {"measurement": "kcat", "setting": "[1]", "value": "0.00245 ± 0.000167", "unit": "s⁻¹"},
      {"measurement": "kcat/Km", "setting": "[1]", "value": "400 ± 66.7", "unit": "M⁻¹ s⁻¹"}
    ]},
    {"protein": "PH1704 protease (Pyrococcus horikoshii OT3; Y120W) (protein, full-length gene in pET-15b (NdeI/BamHI), His-tag (detected by anti-His western blot), E. coli BL21(DE3); heat step and Sephacryl S-200) MKVLFLTANEFEDVELIYPYHRLKEEGHEVYIASFERGTITGKHGYSVKVDLTFDKVNPEEFDALVLPGGRAPERVRLNEKAVSIARKMFSEGKPVASICHGPQILISAGVLRGRKGTSWPGIKDDMINAGVEWVDAEVVVDGNWVSSRVPADLYAWMREFVKLLK", "values": [
      {"measurement": "Km", "setting": "[1]", "value": "20.6 ± 0.77", "unit": "µM"},
      {"measurement": "kcat", "setting": "[1]", "value": "0.02 ± 0.00117", "unit": "s⁻¹"},
      {"measurement": "kcat/Km", "setting": "[1]", "value": "1100 ± 83.3", "unit": "M⁻¹ s⁻¹"}
    ]},
    {"protein": "PH1704 protease (Pyrococcus horikoshii OT3; Y120P) (protein, full-length gene in pET-15b (NdeI/BamHI), His-tag (detected by anti-His western blot), E. coli BL21(DE3); heat step and Sephacryl S-200) MKVLFLTANEFEDVELIYPYHRLKEEGHEVYIASFERGTITGKHGYSVKVDLTFDKVNPEEFDALVLPGGRAPERVRLNEKAVSIARKMFSEGKPVASICHGPQILISAGVLRGRKGTSPPGIKDDMINAGVEWVDAEVVVDGNWVSSRVPADLYAWMREFVKLLK", "values": [
      {"measurement": "Km", "setting": "[1]", "value": "11.3 ± 0.59", "unit": "µM"},
      {"measurement": "kcat", "setting": "[1]", "value": "0.0728 ± 0.002", "unit": "s⁻¹"},
      {"measurement": "kcat/Km", "setting": "[1]", "value": "6630 ± 417", "unit": "M⁻¹ s⁻¹"}
    ]}
  ]
}
